Measurements published in patent publication US20250339501A1, “COMPOSITIONS AND METHODS FOR TREATING METABOLIC DISEASE” (The Regents of the University of California, priority 2021, published 2025).

Tests used:
HFD-fed C57BL/6J mice = test: rDj1 tail-vein injection daily for 5 days in HFD-fed mice; format: in vivo, mouse
Description: C57BL/10cSn-Dmd^mdx/J (001801, mdx) and C57BL/10ScSnJ (000476, WT) mice were ordered directly from The Jackson Laboratory. Different ages of mdx and WT mice were obtained. Animals were weaned 21 days after birth and had free access to food and water and were housed on 12 h light-dark cycle. C57BL/6J males were introduced to a normal diet (NC, Research Diets D15100601) or high-fat diet (HFD, Research Diets D12331), and maintained on a diet for the indicated time. The HFD diet derives 58% of its kilocalories (kcal) from fat (soybean and coconut oil), 25.5% from carbohydrates (sucrose and maltodextrin), and 16.4% from protein (casein). NASH model mice were fed for up to 28 weeks with the NASH diet (Envigo, TD.120528) and 42% fructose (Sigma, F0127) in the water (1,2). The NASH diet is composed of 405.36 g/Kg sucrose and 12.5 g/Kg cholesterol. Recombinant mouse Dj1 protein (Novus, NBP2-59523) or truncated mouse Dj1 (tDj1, GenScript) protein was intravenously injected every day for 5 days or every other day for 2 weeks. Skeletal muscle-specific Park7 knockout mice were generated by crossing Park7 flox mice with Myl1-cre mice (JAX, #024713). Mice were raised in microisolator cages with a 12 h: 12 h light: dark cycle. All procedures were performed in accordance with the Guide for Care and Use of Laboratory Animals of the National Institutes of Health, and were approved by the Animal Subjects Committee of the University of California, Los Angeles.
Cryosections (10-μm thick transverse sections of frozen muscle cut in a cryostat (Leica) at −20° C.) were subjected to hematoxylin & eosin (H&E) staining (10, 54). Liver tissues were fixed in phosphate-buffered 10% formalin and embedded in paraffin wax. Sections were cut and stained with H&E.
Plasma and liver NEFA, Cholesterol, and Triglyceride were analyzed by their respective kits (FUJIFILM Wako Diagnostics)
About 80 mg of liver samples were homogenized and sonicated in PBS (pH 7.4) for lipid extraction. An internal standard mixture (ISTD) and CHCl3:methanol (2:1) were added to the samples before being vortexed, mixed, sonicated, and centrifuged. The supernatant containing the lipid was removed and dried, the lipids were resuspended in ethanol and then sonicated.
AMPK signaling is vital for lipid metabolism in the liver (19). […] These findings indicate that Dj1 could enhance lipid metabolism and ameliorate HFD-induced hepatic steatosis. rDj1 was tail-vein injected into mice fed with a chow diet (NC) or high-fat diet (HFD) daily for 5 days. […] Although body weights and fasting blood glucose levels of HFD-fed mice were unchanged during the rDj1 administration, rDj1 indeed enhanced glucose homeostasis and insulin action, as evidenced by improving glucose tolerance tests and insulin tolerance tests, respectively (FIGS. 4K-4M, 4U-4Z).

AML12 cells = test: Fluorescent-labeled rDj1 binding to plasma membrane of liver cells; format: cell-based, mouse; conditions: Alex 488-labeled rDj1 added to medium, fluorescent microscopy
Description: Myokines contribute to whole-body metabolism by directly signaling to distant organs (15-18). To determine which organs Dj1 targets, WT mice were tail-vein injected with a recombinant Dj1 (rDj1) protein labeled with the near-infrared fluorescent dye IRDye 800CW, and the fluorescent signals were tracked using an optical imaging system (FIGS. 3I, 3J). A robust fluorescent signal could be detected within 5 minutes post-injection. […] Considering that the reagents injected through tail-vein often nonspecifically target the liver, fluorescent-labeled rDj1 was used to determine whether Dj1 could bind to the plasma membrane of liver cells. rDj1 was labeled with Alex 488 and added into the medium of mouse liver cells (AML12 cells) at the indicated time.

PPARα = PPARα expression and transcriptional activity in the liver; format: in vivo, mouse; conditions: liver of NC-fed mice
Description: Also, the transcriptional activity of PPARα was determined to be elevated by Dj1 administration in the liver of both NC- and HFD-fed mice (FIGS. 6L, 6M, 6S, 6T). Furthermore, Dj1 elevated plasma β-hydroxybutyrate (a ketone body) levels in NC-fed mice but not in HFD-fed mice (FIG. 6N, 6U).

B1: rDj1: full-length recombinant Dj1 protein; mouse protein (Novus, NBP2-59523) injected in mice, human protein used in HepG2 cells (protein, UniProt Q99LX0 1-189, looked up)
chain: MASKRALVILAKGAEEMETVIPVDVMRRAGIKVTVAGLAGKDPVQCSRDVMICPDTSLEDAKTQGPYDVVVLPGGNLGAQNLSESPMVKEILKEQESRKGLIAAICAGPTALLAHEVGFGCKVTTHPLAKDKMMNGSHYSYSESRVEKDGLILTSRGPGTSFEFALAIVEALVGKDMANQVKAPLVLKD
modifications: full-length
notes: full-length recombinant Dj1 protein; mouse protein (Novus, NBP2-59523) injected in mice, human protein used in HepG2 cells
TGs levels in the liver (HFD-fed C57BL/6J mice; 0.15 mg/kg/day IV for 5 days): decreasing
glucose tolerance tests (HFD-fed C57BL/6J mice; 0.15 mg/kg/day IV for 5 days): improving
insulin tolerance tests (HFD-fed C57BL/6J mice; 0.15 mg/kg/day IV for 5 days): improving
liver H&E staining, lipids (HFD-fed C57BL/6J mice; daily for 5 days): fewer lipids
body weights (HFD-fed C57BL/6J mice; during rDj1 administration): unchanged
fasting blood glucose levels (HFD-fed C57BL/6J mice; during rDj1 administration): unchanged
localization of labeled rDj1 on liver cells (AML12 cells): colocalized with the plasma membrane
transcriptional activity of PPARα (PPARα): elevated
